assay: yeast display, Sf9 membrane polyspecificity reagent, FACS + sequencing; frameworks hold sequencing errors
In short: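 Using colony PCR, genes from sorted yeast display clones were amplified, then sequenced on MiSeq at 2 × 250 and filtered by CDR length. The clones had been stained with 10% biotinylated, detergent-solubilized Sf9 membrane reagent for 1 hour at 4 °C and sorted by FACS into low and high (top ~1%) gates on anti-HA and streptavidin fluorescence. Polyreactivity labels come from the gate of origin.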

Row | Sequence | polyreactivity (PSR sort gate)
1 | QVQLVESGGGLVQARGSLRLSCAASGSTFGWYAMGWYREAPGKERELVAAIYRGGGSTYYADSVKVRFTISRDNAMNTVYLQMNSLKPEDTAVYYCAAYSYYQGGMDYWGEGTQVTVSS | high polyreactivity
2 | QVQLVESGGGLVQAGGSLRLSCAASGFTFQRYAMGWYRQAPGKERELVATINWSGRTYYADSVNGRFTISRDNAKNTVYLQMNSLKPEDTAVYYCAAERIQYGWWVLFDYWGQGTQVTVSS | high polyreactivity
3 | QVQLVESGGGLVQAGGSLRLSCAASGRTFWRNAMGWYRQAPGKERELVAAISRGGSTKYADSVKGRFTISRDNAKNTVYLQMNSLKPEDTAVYYCAAATPGRYGYWGQGTQVTVSS | high polyreactivity
4 | QVQLVESGGGLVQAGGSLRLSCAASGSSFTPNVMGWYRQAPGKERELVAAISQSGGSTFYADSVKGRFTISRDNAKNTVYLQMNSLKPEDTAVYYCATEYYGPVYDLDYDYWGQGTQVTVSS | low polyreactivity
5 | QVQLVESGGGLVQAGGSLRLSCAASGSTFRGNAMGWYRQAPGKERELVAAISSSGGSTNYADSVKGRFTISRDNAKNTVYLQMNSLKPEDTAVYYCAAERYFVWPFLLKYDYWGQGTQVTVSS | low polyreactivity
6 | QVQLVESGGGLVQAGGSLRLSCAASGRTFARYGMGWYRQAPGKERELVATINWRSAGSTYYADSVKGRFTISRDNAKNTVYLLMNSLKPEDTAVYYCNVDSGRSYRVARYDYWGQGTQVTVSS | low polyreactivity
7 | QVQLVESGGGLVQAGGSLRLSCAASGSTFERYAMGWYRQEPGKEREFVAAISAIGDSTYYADSVKGRFTITRDNAKNTVYLQMNILKPEDTAVYYCAARYTPYHIGRGYYYWGQGTQVTVSS | high polyreactivity
8 | QVQLVESGGCLVQAGGSLRLSCAASGSTFNWNAMGWYRQAPGKERELVAAITSSGARTRYADSVKGRFTISRDNAKNTVYLQMNSLKPEDTAVYYCAAYVYISPSGYYYWGLGTQVTVSS | low polyreactivity
9 | QVQLVESGGGLVQAGGSLRLSCAASGRIFEHNAMGWYRQAPGKEREFVAAISSSGGSTYYADSVKGRITISRDNAKNTVYLQMNSLKPVDTAVYYCNAGSTYYERNYWGQGTQVTVSS | low polyreactivity
10 | QVQLVESGGGLVQAGGSLRLSCAASGSIFDDYAMGWYRQAPGKERELVAAITSGGSTYYADSVKGRFTISRDNAKKTVYLLMYSLKPEDTAVYFRATRYHWSSSFAPVGAYGYWGQGTQVTVSS | low polyreactivity
11 | QVQLVESGGGLVQAGGSLRLSCAASGFTFGANVMGWYRQAPGKERELVAAINTRGSRTYYADSVKGRFTISRDIAKNTVYLQMNSLKPEDTAVYYCAAALRKEYDYWGQGTQVTVSS | high polyreactivity
12 | QVQLVESGGGLLQAGGSLRLSCAATGITFDRYAMGWYRQAPGKERELVAAITSGGRTYYADSVKGRFTISRDNAKNTVYLQMNSLKPEDTAVYYCNATRGQYVGRYYYWGQGTQVTVSS | high polyreactivity
13 | QVQLVESGGGLVQAGGSLRLSCAASGSISDYYAMGWYRQAPGKERELVAAISWDGGSTYYADTVKGRFTISRDNAKNTVYLQMNSLKPEDTAVYYCNAGSGASVGNHILYDYWGQGTQVTVSS | low polyreactivity
14 | QVQLVESGGGLVQAGGSLRLSCAASGFTFQYYSMGWYRQAPGKERELVAAISSSGGSTYYADSVKGRFTISRDNAENTVYLQMNSLKPEDTAVYYCAIRVSTYGFSGYDYWGQGTQVTVSS | high polyreactivity
15 | QVQLVESGGCLVQAGGSLRLSCAASGRTFSPNAMGWYRQAPGKERELVAAISWISGGRTYYADSVKGRFTISRDNAKNTVYLQMNSLKPEDTAVYYCAAEYYYTYGYWGQGTQVTVSS | high polyreactivity
16 | QVQLVESGGGLVQAGGSLRLSCAASGRTFHYYAMGWYRQAPGKERELVAAITRGGNTYYADSVKGRFTISRDNAKNTVYLQMNSLKPEDTAVYYCAKTAAVNGGYDYWGQGTQVTVSS | high polyreactivity
17 | QVQLVESGGGLVQAGGSLRLSCAASGFTFTDYAMGWYRQAPGKERELVAAISGIGGSTYYADSVKGRFTISRDNAKNTVYLQMNSLKPEDTAVYYCAAELTKWRFWGLHDSWGQGTQVTVSS | high polyreactivity
18 | QVQHVESGGGLGQAGGSLRLSCAASGIIFPRYKAWYRPAPGKDRELVAAIRWSSDDTNYADSVKGRFTISRDNAKNTVYLQMNSLKPEDTAVYYCAADSYYDRTIQFEFSARTYDYWVQGTQVTVSS | low polyreactivity
19 | QVQLVESGGGLVQAGGSLRLSCAASGRIFKFYTMGWDRQAPGKERELVASIDSTGGSTYYADSVKGRFTISRDNAKNTVYLQMNSLKPEDTAVYYCAAEWIWSSNWYKKYDYWGQGSQVTVSS | high polyreactivity
20 | QVQLVESAGGLVQAGGSLRLSCAASGSTFDLYAMGWYRQAPGKEREFVAAISRSGGSTYYADSVKGRFTISRDNAKNTVYLHMNSLKPEDTAVYYSNARWPPGVSRGGMGYWGQGTQVTVST | high polyreactivity
21 | QVQLVESGGGLVQAGGSLRLSCAASGLSFRRYAMGWYRQAPGKEREFVATISRRGGSTRYADSVKGRFTISRDNAKNTVYLQMKSLKPEDTAVYYCNKVEYASIAKGYDYWGQGTQVTVSS | high polyreactivity
22 | QVQLVESGGGLVQAGGSLRLSCAASGRIFVGYAMGWYRQAPGKEREFVAAISRNGGRTYYADSVKGRFTISRDNAKNTVYLQMNSLKPEDTAVYYCATEKYVPSPGGYWGQGTQVTVSS | high polyreactivity

Row | Sequence | polyreactivity (PSR sort gate)
23 | QVQLVESGGGLVQAGGSLRISCAASGSTFRLYAMGWYRQAPGKERELVAAISSNGVRTYYADSVKGRFTISRDNAKNTVYLQMNSLKPEDTAVYYCAARVYPAYPRGYDYWGQGTQVTVSS | high polyreactivity
24 | QVQLVESGGGLVQAGGSLRLSCAASGSTSRYALGWYIQAPGNERELVAAITRSGGTTYYADSVKGRFTISRDNAKNTVYLQMNSLIPEDTAVYYCATSDRQVKYDYWGQGTQVTVSS | low polyreactivity
25 | QGQLVESGGGLVQAGGSLRLSCAASGYIIRAYAMGWYRQAHGKERELVAAISSRGGSTYYADSVKGRFTISRDNAKNTVYLQMNSLKPEDTAVYYCAAAYRQPYIGYGYWGQGTQVTVSS | high polyreactivity
26 | QVQLVESGGGLVQAGGSLRLSCAASGFTFSYYAMGWYRQAPGKERELVAAISWSGGSTYSADSVKGRFTISRDNAKNTVYLQMNSLKPEDTAVYYCAAEVYFLATGTWYDYWGQGTQVTVSS | high polyreactivity
27 | QVQLVESGGGLVQAGGSLRLSCAASGSTLAFYAMGWYRQAPGKERELVAAIRRGGSTYYADSVKGRFTISRDNAKNTVYLQMNSLKPEDTAVYYCAARYRRVSYYYWGQGTQVTVSS | high polyreactivity
28 | QVQLVESGRGLVQAGGSLRLSCAASGFIFDYNTMGWYRQAPGKERELVAGITSGGSTYYADSVKGRFTISRDNEKNTFYLQMNSLKPDDTAVYYCATDDDEYYGYDYWGQGTQVTVST | low polyreactivity
29 | QVHLVESGGGLVQAGGSLRLSCAASGGTFRTYAMGWYRQAPGTERELVAAITWRGGSTYYADSVKGRFTISRDNAKNTVYLQMNSLKPEDTAVYYCAARGAYQWSFYKDDYWGQGTQVTVSS | high polyreactivity
30 | QVQLVESGGGLDQAGGSLRLSCAASGFIFNKYALGRSRQAPGTEREFVATIRRDGSTNYADSVKGRFTISRDNAKNTVYLQMNSLKPEDTAVYSCAKRPWYHADWWDDHWGQGTQVTVSS | high polyreactivity
31 | QVQLVESGGGLVQAGCSLRLSCAASGRIFRYYAMGWYRQAPGKERELVAAISWSGGSTYYADSVKGRFTISRDNAKNTVYLQMNSLKPEYTAVYYCAARYSLKGGRYDYWGQGTQVTVSS | high polyreactivity
32 | QVQLVESVGGLVQAGGSLRLSCAASGRTLGGNAMGWYRQAPGKERELVAAITNSASTYADSVKGRFTISRDNAKNTVYLQMNSLKPEDTAVYYCNAPDPSDQHGDYWGQGTQVTVSS | low polyreactivity
33 | QVQLVESRGGLVQAGGSLRLSCAASGITLYGYAMGWYRQAPGKERELVAAISRSGSSTYYADSVKGRFTISRDNAKNTVYVQMNSLKPEDTAVYYCNSEKYYLAYLLPFNYWGQGTQVTVSS | high polyreactivity
34 | QVQLVESGGGLVQAGGSLRLSCAASGRTLRRYAMGGYRQAPGKERELVAAISSGVSTNYADSVKGRFTISRDNAKNTVYLQMNSLKPEDTAVYYCNKKRPVYALSIVPYYSWGQGTQVTVSS | high polyreactivity
35 | QVQLVESGRGLVQAGGSLRLSCAASGIIFVKYAMGWYRQAPGKERELVAAISTRGGSTYYADSVKGRFTISRDNAKNTVYLQMNSLNPEDTAVYYCADDATRKSQLPNTVPYDYWGQGTQVTVSS | high polyreactivity
36 | QVQLVESGGGLVQAGGSLRLSCAASGYTFFYYAMGWYRQAPGKERELVATISGNGGRTYYADSVKGRFTISRDNAKKTVYLQMNSLKPEDTAVYYCAALLYIRSVGYDYWGQGTQVTVSS | low polyreactivity
37 | QFQLVESVGGLVQAGGILRLSCAASGRNYNSYAMGWYRKAPGKERELVAAISRTGASTYYSDSVKGRFTISRDNAKNTVYLQMNSLKPEDTAVYYCAADANSGDGYYWGQGTQVTVSS | high polyreactivity
38 | QVQLVESGGRLVQAGGSLRLSCAASGRIFAQYAMGWYRQAPGKERELVAAISGRGRTTYYADSVKGRFTISRDNEKNNVYLQMNSVKPEDTAAYYCAAKSTYVAGDYSGQGTQVTVSS | high polyreactivity
39 | QVQLVESGGGLVQAGGSLRVSCAASGFTFNYYAMGWYRQAAGKERELVAAISKDGTRTYYADSVKGRFTISRDNAKNTVYLQMNRQKPEDTAVYYCAAKASPAGSNYWGQGTQVTVSS | high polyreactivity
40 | QVQLVESGGGLVQAGGSLRLSCAASGSTFKQYAMGWYSQAPGKERELVAAISLSGSRTYYADSVKVRFTISRDNAKNTVYLQMKSLIPVDTAVYYCAAELRSSAGWLYDYWGQGTQVTVSS | high polyreactivity
41 | QVQLVESGGGLVQAGGSLRLSCAASGITFDEYAMGWYIQAPGKERELVASISAGSTYYADSVKGRFTISRDNAKNTVYLQMNSLKPEDTAVYYCAVVVDYDAYRYWGYDYWGQGTQVTVSS | high polyreactivity
42 | QVQLVESGGGLVQAGGSLRLSCAASGLTFPFYTMGWYRQAPGKERELVAAISRRGGSTYYADSVKGRFTISRDNAKNTDYLQMNSMKPVDTAVYYCAADKYSWYDYWGQGTEVTVSS | low polyreactivity
43 | QVQLVESGGGLVQAGGSLRLSCAASASTFYGYAMGRFRQAPGKERELVAAISSGGSTYYADSVKGRFTISRDNAKNTVYVQMNSLKPEVTAVYYCAAYSYPKKYGYWGQGTQVTVSL | high polyreactivity

Reference: the nanobody polyreactivity screen of Harvey et al. (2022)
